Data reported in publication doi:10.1101/2025.05.13.653872, “A novel non-catalytic function of PA2803-encoded PcrP contributes to polymyxin B resistance in P. aeruginosa and redefines the functional role of the PA2803 subfamily” (bioRxiv, 2025).

Target: the molecule itself
Assay: cross-linking; 50 μM purified PcrP with 0.02, 0.05, 0.1 and 0.2% glutaraldehyde for 2 min in 50 mM NaCl, 1% glycerol, 20 mM HEPES pH 7.8; stopped with Tris-HCl pH 8.0; 12% SDS-PAGE, Coomassie

B1: 6XHis-PcrP (PA2803), recombinant, purified (natural protein)
chain: MPSSDQLPRFTALLFGLSGGLVDFGARTLSLALLRSHPHSPAEHLRDASLLPFAEAQSFLLRRKPNKSERQRLEQALDEAAGEQAEAIAGAVALLESLDEQRIPYAWQDELPESVCQRLAAPLGRANALIPLAGARPWPAPDGCWQALARLGIERLDGCVLVSAQPRQLQAGLNAGLWTIGLAASGPSCGLSPADWDALGHTERDRLRADATLELYRLGVHSVIDHLGELQPCLHDLAVRRLKGEKP
notes: PcrP (PA2803), P. aeruginosa PAO1; No tag cleavage step is described; The reverse primer carries the stop codon, so the His tag of the vector should be N-terminal; also called 6XHis-PA2803; pAAK001; source: E. coli BL21(DE3), purified (Ni-NTA)
  stoichiometry N: 2
